Here are results for one protein from publication PMC10511561, “Synergism between CMG helicase and leading strand DNA polymerase at replication fork” (Nature Communications, 2023).

The data set concerns the molecule itself. Kind of data set: cryo-EM structure; replisome assembled at room temperature from 0.7 uM CMG, forked DNA and ATPγS, then 1.5 molar excess of Polε, Ctf4, Tof1-Csm3; 100 mM KCl, 25 mM HEPES pH 7.6, 4 mM MgCl2, 4 mM ATPγS; 10-30% glycerol gradient with glutaraldehyde fixation; States I-VI by 3D classification.

B1: Ctf4 homotrimer (natural protein, yeast)
chain: MVSVIDKLVFDFGGKTLVSLAPDNNTLCVANKNGLTKILKTNNPEEEPETLDSSKLVSSIKCYSNSHFLMTTMQGDALRYNIDSSQEELLARFALPLRDCCVIHSGKMAVFGGDDLELILLELDDETHKKHAIKIDEQVSQISYNSQMNILAVSMINGKVQIFSLTSTIPNKVHELNDYIVANSYDDTHRDKILSNMMDDIDKDNDNDLSETADPDENNVADPEFCAANRICTRVAWHPKGLHFALPCADDTVKIFSIKGYSLQKTLSTNLSSTKAHFIDLQFDPLRGTYIAAVDLNNKLTVWNWETSEIHYTREFKRKITNIAWKIQADSKTLDLVLGTWSGSIAIVQNLAESVVSNIPDQSVAESSTKHGLFVDSESDLENLEGNDDINKSDKLFSDITQEANAEDVFTQTHDGPSGLSEKRKYNFEDEEDFIDDDDGAGYISGKKPHNEHSYSRVHKTHSFPISLANTGKFRYMPFSPAGTPFGFTDRRYLTMNEVGYVSTVKNSEQYSITVSFFDVGRFREYHFEDLFGYDLCFLNEKGTLFGQSKTGQIQYRPHDSIHSNWTKIIPLQAGERITSVAATPVRVIVGTSLGYFRSFNQFGVPFAVEKTSPIVALTAQNYRVFSVHYSQFHGLSYSLSELGTSSKRYYKRECPLPMSLPNINSDMKKDANLDYYNFNPMGIKSLFFSSYGDPCIFGSDNTLLLLSKWRSPEESKWLPILDSNMEIWKMSGGKETTDIHVWPLALAYDTLNCILVKGKHIWPEFPLPLPSEMEIRMPVFVKSKLLEENKAILNKKNEIGADTEAEEGEEDKEIQIPVSMAAEEEYLRSKVLSELLTDTLENDGEMYGNENEVLAALNGAYDKALLRLFASACSDQNVEKALSLAHELKQDRALTAAVKISERAELPSLVKKINNIREARYEQQLK
notes: Ctf4, yeast; also called Ctf4 trimer; source: E. coli BL21(DE3) Rosetta (pXZ1), purified (Ni-NTA, sumo protease, Ni-NTA, Mono Q, Superose 6)
The stoichiometry N is a count of units in the complex or per binding partner. B1: the “stoichiometry N” value worked out at 3.
